The results in this text go back to patent publication US20130039922A1 (YEDA RESEARCH AND DEVELOPMENT, published 2013).

The target in test [1] is MMP-2 (as used in the enzymatic kinetic assay). Description: cell-based or functional assay.
Test [2] has as its target T1, human MT1-MMP catalytic domain (human, UniProt P50281 114-290). Description: cell-based or functional assay.
For test [3], the target named is T2, active MMP-9 (as used in the enzymatic kinetic assay and the XAS studies). The test is described as follows: cell-based or functional assay.
The target in test [4] is T3, MMP-9 catalytic fibronectin fragment (human or mouse (not told which)).
T3 construct: domain: catalytic fibronectin fragment; Immobilized on a streptavidin (SA) sensor chip for SPR; also called Biotinylated human or mouse MMP-9 catalytic fibronectin fragment; Biotin-labeled MMP-9
Description: SPR (BIAcore 3000), biotin-labeled MMP-9 on SA chip, antibody in flow. The text has this:
(§1) FIGS. 13A-B are graphs illustrating results of SPR analysis of SDS3/SDS4 binding to MMP-9. Biotinylated human or mouse MMP-9 catalytic fibronectin fragment was immobilized on streptavidin (SA) chip. Control-corrected sensorgrams corresponding to the interaction of SDS3(FIG. 13A) and SDS4 (FIG. 13B) with biosensor surface-immobilized MMP-9 are shown. Antibody concentrations are represented by different colors, with specific values indicated. The data were collected in duplicate, and representative SPR sensorgrams in the ligand concentration series are shown. The ka (1/Ms) and kd (1/s) values were determined by SPR analysis, and KD (M) was calculated from ka and kd (KD=kd/ka).RU,response units.
(§2) The affinity between SDS3/SDS4 and human and mouse MMP-9 catalytic fibronectin fragment was measured with a BIAcore 3000 instrument (BIACORE). Biotin-labeled MMP-9 was immobilized on a sensor chips SA by the biotin-streptavidin coupling method, according to the manufacturer's instructions. All measurements were carried out at 25° C. and with a flow rate of 20 μl/min for both the association and dissociation phases in TBS buffer (50 mM Tris, 100 mM NaCl, 5 mM CaCl₂, pH 7.5). The interaction was monitored as the change in the SPR response. The association and dissociation rate constants, kₐ and kd, were determined by analysis of the appropriate regions of the sensogram using the BIAevaluation 3.2 software package (Pharmacia). The apparent equilibrium dissociation constant KD was determined from the ratio of the two rate constants (kd/kₐ).
In general terms: Surface plasmon resonance follows binding to a sensor surface in real time, without labels.

The target in test [5] is MMP-2 (as used in the enzymatic kinetic assay). The test is described as follows: enzyme kinetics, fluorogenic peptide hydrolysis, fit to competitive inhibition. The procedure: (§3) Similarly the enzymatic activity of TACE was measured by monitoring the degradation of fluorogenic peptide QF-45 (Mca-[…]dinitrophenyl)-NH2) (SEQ ID NO: 2). A range of different mAb concentrations (0.4-30 μM) were pre-incubated with 2 nM of active enzyme in 50 mM Tris buffer (pH 7.5 37° C.), 200 mM NaCl, 5 mM CaCl₂, and 0.05% Brij 35 for 40 minutes at 37° C. The enzymatic reaction was initiated by addition of 10 μM of the fluorogenic peptide. Fluorescence (as a measure of substrate degradation) was immediately recorded continuously for 30-50 minutes. Initial reaction rates were measured and inhibition constants were evaluated by fitting to equation of competitive inhibition (vi/vo=Km+[S]/(Km(1+I/Ki)+[S]) [I. H. Segel, Enzyme Kinetics (Wiley-Interscience Publication, 1993)], where vi is initial velocity in the presence of mAb, vo is the initial velocity in the absence of mAb inhibitor, S is substrate concentration Km is the Michaelis-Menten constant and I is mAb concentration.
(§4) The effect of SDS3 and SDS4 on MMPs' enzymatic activity was examined using to standard peptide hydrolysis assay based on conversion of fluorogenic peptide substrate [C. G. Knight, F. Willenbrock, G. Murphy, FEBS Lett 296, 263 (Jan. 27, 1992)] as well as native gelatin substrate. Initial reaction velocities were measured in the presence of several concentrations of metallobodies incubated with various MMPs and tumor necrosis factor-alpha converting enzyme (TACE).

The target of test [6] is T1, human MT1-MMP catalytic domain. Described as above. Here is the method: as §3, §4
Test [7] has as its target T2, active MMP-9 (as used in the enzymatic …). The test is described as above. Here is the method: as §3, §4
Test [8] has as its target T4, mouse MMP-9 catalytic domain (mouse, UniProt P41245 107-215; P41245 391-443, biotinylated (site not stated)).
T4 construct: range 107-215;range 391-443; also called Biotinylated mouse catalytic MMP-9; not shown: N-terminal His tag from the pET3a construct
T4 sequence (looked up): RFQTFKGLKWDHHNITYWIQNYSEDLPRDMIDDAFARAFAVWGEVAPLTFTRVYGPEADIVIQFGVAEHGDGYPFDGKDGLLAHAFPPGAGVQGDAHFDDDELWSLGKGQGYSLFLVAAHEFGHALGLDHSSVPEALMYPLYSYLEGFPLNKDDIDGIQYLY
The test is described as follows: ELISA, biotinylated mouse catalytic MMP-9 on streptavidin plate, soluble antibody. Here is the method:
ELISA Binding Assay: Biotinylated mouse catalytic MMP-9 was coupled to streptavidin coated microtiter plate (Nunc) according to manufacture protocol. After the plates were coated, they were incubated with the SDS3/4 mAb for 2 hours at room temperature. The plates were washed, and bound Ab was detected with peroxidase-labeled goat anti-mouse IgG (Jackson) according to standard procedures. EC₅₀, or concentration of half-maximal binding was calculated from a four-parametric sigmoidal-curve fitting analysis.

The target in test [9] is T3, MMP-9 catalytic fibronectin fragment. The test is described as follows: SPR (BIAcore 3000), biotin-labeled MMP-9 on SA chip, antibody in flow; KD=kd/ka.
Text: as §1
as §2, with “All measurements were carried out at 25° C. and with a flow rate of 20 μl/min for both the association and dissociation phases in TBS buffer (50 mM Tris, 100 mM NaCl, 5 mM CaCl₂, pH 7.5).” left out

Test [10] addresses T2, active MMP-9 (as used in the enzymatic …). Description: cell-based or functional assay. The source holds these as a separate data set.
The target in test [11] is T5, native bovine serum albumin (bovine, UniProt P02769 25-607).
T5 construct: Unconjugated carrier protein used as the counter-screen in the hybridoma ELISA; also called native BSA; BSA
T5 sequence (P02769 25-607 limits assumed): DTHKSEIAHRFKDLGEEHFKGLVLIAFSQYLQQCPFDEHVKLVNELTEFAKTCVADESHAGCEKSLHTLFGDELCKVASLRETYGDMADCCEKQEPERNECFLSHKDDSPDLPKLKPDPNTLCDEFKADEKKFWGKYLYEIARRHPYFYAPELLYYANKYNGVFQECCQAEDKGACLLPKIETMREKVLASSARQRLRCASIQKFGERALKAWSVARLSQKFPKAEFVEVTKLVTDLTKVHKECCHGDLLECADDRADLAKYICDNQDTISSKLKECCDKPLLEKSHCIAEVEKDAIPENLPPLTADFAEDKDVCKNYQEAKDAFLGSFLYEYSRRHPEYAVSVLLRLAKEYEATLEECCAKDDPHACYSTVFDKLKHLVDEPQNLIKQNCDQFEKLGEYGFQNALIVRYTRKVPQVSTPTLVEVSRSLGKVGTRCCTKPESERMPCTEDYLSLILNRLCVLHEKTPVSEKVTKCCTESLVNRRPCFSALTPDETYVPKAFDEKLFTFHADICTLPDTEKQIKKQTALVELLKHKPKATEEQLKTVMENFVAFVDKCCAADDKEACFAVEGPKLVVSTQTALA
The test is described as follows: ELISA screen of hybridoma supernatants on plate-absorbed antigen. Here is the method:
Preparation of Anti-MMP Metallobodies Using Zn-Tripod-KLH as an Immunogen: Female BALB/c mice were immunized on day 1 with complete Freund adjuvant and 50 μg of Zinc-Tripod-KLH and boosted every two weeks with incomplete Freund adjuvant by emulsifying and intraperitoneal injection. Spleen cells from the immunized mice were fused with NSO murine myeloma cells and cultured in HAT (hypoxantine/aminopterin/thymidine) selection medium. The culture supernatants of the hybridoma were screened using an ELISA, employing pairs of wells in microtiter plates on which were absorbed MMP-9 catalytic domain and Zinc-Tripod-BSA as antigens (0.5 μg of MMP-9 or Zinc-Tripod-BSA conjugate per well). After incubation with 100 μl of the hybridoma supernatants, and with intervening washes with Tris-buffered saline, pH 7.5, containing 0.05% Tween 20 (TBS-Tween), the wells were incubated with a peroxidase-conjugated goat anti-mouse IgG, followed by a substrate solution containing 2′-azino-bis(3-ethylbenzthiazoline-6-sulfonic acid) diammonium salt. Hybridoma cells, corresponding to the supernatants that were positive on both MMP-9 and Zinc-Tripod—BSA and negative on native BSA, were then cloned by limited dilution. After repeated screenings, four clones showing the most distinctive recognition of both antigens were obtained and clone SDS3 was chosen for further characterization.
In general terms: An ELISA detects its analyte on a solid surface through an enzyme-linked reagent.

Test [12] concerns the target T6, Human Pro-MMP-9 (human, UniProt P14780 20-707).
T6 construct: Zymogen with pro-domain; also called MMP-9 zymogen
The test is described as follows: pull-down with SDS3 on protein A beads, SDS-PAGE, Coomassie staining. Here is the method:
(§5) FIGS. 7A-B are photographs illustrating that SDS3 recognizes only the active conformation of MMP-2 and -9. FIG. 7A: Western blot analyses of MMP-9 using commercial anti-MMP-9 antibody. Lane 1—SDS3 captured from mice ascetic fluid by protein G beads; lane 2—As control non-related IgG similarly captured; lane 3—ProMMP-9, as a molecular weight marker to discern the active species. FIG. 7B: SDS3 mAb immobilized to protein A beads was analyzed for its ability to pull down purified ProMMP-9 (top), ProMMP-2 (middle) or active MMP-2 (bottom). Immunoprecipitates (lane 1) and unbound fraction (lane 2) were separated on SDS/PAGE gel, and visualized by Coomassie-staining. As a negative control for non-specific adsorption, enzyme alone was incubated with protein A Sepharose beads (lane 3).
(§6) After washing unbound antibody, purified enzyme ProMMP-9, Pro-MMP-2, or active MMP-2 fragment (catalytic and fibronectin domain), was added following 2 hour incubation under continuous stirring at room temperature. Bead-bound immune complex was collected by centrifugation and washed three times with PBS. Bound proteins were eluted with SDS sample buffer, fractionated by SDS-PAGE, and detected by Coomassie blue staining. As negative control for non specific adsorption enzyme was incubated with protein A Sepharose beads.

Test [13] addresses T7, Human pro-MMP-2 (human, UniProt P08253 30-660).
T7 construct: Zymogen with pro-domain; also called MMP-2 zymogen
T7 sequence (looked up): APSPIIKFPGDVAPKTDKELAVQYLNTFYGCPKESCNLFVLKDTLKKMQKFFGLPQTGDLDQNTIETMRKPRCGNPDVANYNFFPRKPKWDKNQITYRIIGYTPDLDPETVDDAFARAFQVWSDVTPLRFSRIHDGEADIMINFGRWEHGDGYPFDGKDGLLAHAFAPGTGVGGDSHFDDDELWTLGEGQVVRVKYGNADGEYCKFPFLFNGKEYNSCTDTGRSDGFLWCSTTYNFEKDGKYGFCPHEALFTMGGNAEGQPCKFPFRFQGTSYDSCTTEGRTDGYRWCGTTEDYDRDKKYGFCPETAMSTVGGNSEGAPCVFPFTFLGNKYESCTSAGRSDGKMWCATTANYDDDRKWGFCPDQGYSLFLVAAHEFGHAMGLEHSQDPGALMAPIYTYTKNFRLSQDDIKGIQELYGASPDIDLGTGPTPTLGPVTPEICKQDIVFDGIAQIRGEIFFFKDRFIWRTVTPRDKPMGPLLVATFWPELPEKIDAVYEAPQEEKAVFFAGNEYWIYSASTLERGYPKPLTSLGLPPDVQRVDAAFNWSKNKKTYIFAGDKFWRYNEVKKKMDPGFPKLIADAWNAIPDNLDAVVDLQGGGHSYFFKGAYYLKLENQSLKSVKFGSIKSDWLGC
The description is as above. Here is the method:
as §5, §6

MMP-2 (as used in the enzymatic kinetic assay), sequence (P33434 110-467): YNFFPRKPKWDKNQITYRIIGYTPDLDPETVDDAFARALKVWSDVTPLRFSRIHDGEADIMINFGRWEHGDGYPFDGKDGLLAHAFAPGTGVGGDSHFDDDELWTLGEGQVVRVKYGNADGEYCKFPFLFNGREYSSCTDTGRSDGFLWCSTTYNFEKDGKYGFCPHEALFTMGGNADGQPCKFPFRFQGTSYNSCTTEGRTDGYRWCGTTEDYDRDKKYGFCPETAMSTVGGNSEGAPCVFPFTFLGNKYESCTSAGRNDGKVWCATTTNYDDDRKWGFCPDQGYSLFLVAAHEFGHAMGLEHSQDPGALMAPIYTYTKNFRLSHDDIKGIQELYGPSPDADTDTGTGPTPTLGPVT
T6 sequence (P14780 20-707): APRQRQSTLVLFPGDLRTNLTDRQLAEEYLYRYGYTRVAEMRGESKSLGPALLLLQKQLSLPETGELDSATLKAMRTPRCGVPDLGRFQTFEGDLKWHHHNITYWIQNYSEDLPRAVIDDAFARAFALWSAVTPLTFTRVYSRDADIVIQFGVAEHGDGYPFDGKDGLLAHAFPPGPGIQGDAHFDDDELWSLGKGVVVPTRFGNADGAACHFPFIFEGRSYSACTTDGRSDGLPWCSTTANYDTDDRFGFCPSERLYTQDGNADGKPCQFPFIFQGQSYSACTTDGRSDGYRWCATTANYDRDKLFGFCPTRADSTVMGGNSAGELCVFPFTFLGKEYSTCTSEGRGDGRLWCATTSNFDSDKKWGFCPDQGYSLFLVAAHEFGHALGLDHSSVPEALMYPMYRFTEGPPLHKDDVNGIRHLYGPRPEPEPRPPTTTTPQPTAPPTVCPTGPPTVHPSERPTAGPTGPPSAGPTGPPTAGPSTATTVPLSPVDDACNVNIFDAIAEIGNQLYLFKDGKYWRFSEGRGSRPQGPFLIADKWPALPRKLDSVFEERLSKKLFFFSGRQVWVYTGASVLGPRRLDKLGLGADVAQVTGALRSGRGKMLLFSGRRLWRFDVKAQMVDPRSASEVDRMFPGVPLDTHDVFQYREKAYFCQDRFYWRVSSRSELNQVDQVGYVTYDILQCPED

B1: SDS4 (antibody, V domains shown)
VH: EVQLQQSGPELVKPGASVKISCKASGYTFTGYYMHWVKQSPEKSLEWIGEINPSTGGTTYNQKFTGKATLTVDKSSSTAYMQLKSLTSDDSAVYYCASYYRYDWFAYWGQGTLVTVSA
VL: DVLMTQTPLSLPVSLGDQASISCRSSQSLVHSNGNTYLHWYLQKPGQSPKLLIYKVSNRFSGVPDRFSGSGSGTDFTLKISRVEAEDLGVYFCSQSTHVPFTFGSGTKLELKR
notes: Mouse hybridoma monoclonal antibody raised against Zn-Tripod-KLH; also called SDS4 mAb; SDS4 metallobody
The term koff denotes the rate constant with which the complex falls apart. The low end stands for slow dissociation, the high end for fast dissociation. The kon is a measure of how fast the partners come together. A low value points to slow association. By Ki is commonly meant the dissociation constant of the complex between target and ligand, obtained from inhibition or displacement. A lower Ki goes with higher affinity. Broadly, the EC50 is the concentration that produces a half-maximal response. The low end stands for greater potency, the high end for weaker potency. The term Kd denotes the concentration at which binding is half-saturated. Low values mean tighter binding, high ones weaker binding. For the molecule B1, the “IC50 of inhibition of enzymatic activity (fluorogenic peptide hydrolysis)” value in test [1] worked out at 56 nM; in test [2], 1420 nM; in test [3], 70 nM. In addition, the koff in test [4] was determined as 0.00166 s⁻¹. The kon in test [4] was 439000 M⁻¹ s⁻¹. Moreover, the Ki in test [5] amounted to 54 nM; in test [6] it was 1400 nM; in test [7], 54 nM. In test [8], this molecule had an EC50 of 15 nM. Also, the Kd in [9] was found to be 3.78 nM.

B2: SDS3 (antibody, V domains shown)
VH: VQLQESGGGLVKPGGSLKLSCAASGFAFSTYDMSWIRQTPEKRLEWVATISSGGSYTYYPDSVKGRFTISKDNARNTLYLQMSSLRSGDTALYYCTRFRYDGWYFDVWGQG
VL: DVLITQTPLSLPVSLGDQASISCRSSQSIVHSNGNTFLEWYLQKPGQSPKLLIYKVSNRFSGVPDRFSGSGSGTDFTLKISRVEAEDLGVYYCFQASHVPPTFGGG
notes: Mouse hybridoma monoclonal antibody raised against Zn-Tripod-KLH; also called SDS3 mAb; SDS3 metallobody
As to B2, the “IC50 of inhibition of enzymatic activity (fluorogenic peptide hydrolysis)” value worked out at 1400 nM in test [1] and 1000 nM in test [3]. The “IC50 (read off the curve)” value in test [10] was roughly 3000 nM. Also, the binding result in test [11], in [12] and in test [13] was “no binding” each time. Further, the koff in [4] amounted to 0.00135 s⁻¹. In [4], this molecule registered a kon of 6640 M⁻¹ s⁻¹. Besides, the Ki in test [5] and in test [7] was 1000 nM throughout. The molecule further showed an EC50 in [8] of 200 nM. Also, the affinity in test [9], expressed as Kd, was 200 nM.
